Assay results reported in the RNAGym collection of RNA variant scans (doi:10.7554/elife.90254).

B1: LINE1-full (parent)
chain: UACGUAGGUGGUUUUCCCCUGAUAGUGCUAAGGGGGCCUGGAAGUUUGGACUGGGCAGAGCUCAACACAGCGUGGCAAAGUGGCUGUGGCUAGACUGCCUCUCUGGAUUCCUCGUCACUCAGCAGGGCAUCUCUGAGAGAAAUGCC

Variants of: B1
Test: self-cleavage, relative activity (ratio to wild type); higher = more cleavage; in vitro, sequencing; the parent is a self-cleaving ribozyme

Variant	self-cleavage
C56U A69G	0.02
C56U A69U	0.02
C56G	0.07
C56U	0.11
C56A	0.05
G53A A141G	1.26
U52A A107G	0.98
G54C	0.86
G54U	0.67
G54A	0.61
C56U A92G	0.06
C56U A117G	0.18
U52A U102A	1.03
C56U A142G	0.11
C51A A67U	0.1
C51A A67G	0.63
G55A G125C	0.15
U52C A142G	1.02
A57C A94G	0.25
U52G U62C	0.09
G53U U130C	1.5

Variant	self-cleavage
G54A A79G	0.4
G55C A57U	0.02
G53A C146U	1.31
U52A C111A	1.25
U52G A142G	0.51
U52C C120U	1.77
U52G U119A	0.93
C51U U85C	0.19
C56A A124G	0.03
C56U C128U	0.22
A57C A78G	0
G55A U96C	0.04
G55A U96A	0.05
U52A U130C	1.42
C51U A117C	1.28
C51U A117G	1.5
G53U U87A	0.05
U52C A59G	0.16
U52C U91G	0.17
C51U A79G	1.53
G55U C113U	0.07

Variant	self-cleavage
C56U U132C	0.2
G53A U112C	1.25
U52A A140G	1.08
G55C A67G	0.05
U52C G127A	0.93
C56U A129U	0.23
C56G A79G	0.1
C51U A67C	0.05
G54U G82A	1.26
U52A U134C	2.25
U52A U134A	1.04
G55A U85C	0.06
G55C U73A	0.07
G55A U87C	0.04
G54A A57C	0.07
G55A U115A	0.21
G55A U115C	0.63
U52C A92C	0
U52C A92U	0.52
G54A U115C	1.27
G54A U115G	1.02

Variant	self-cleavage
G53C U81C	1.34
G54U A117G	0.52
U52G U104A	1
U52C A67G	0.61
G54U A64G	0.21
U52C G53U	1.6
C56U G74A	0.09
G53C U115C	1.96
U52A A67G	0.38
U52A A67U	0.05
G53A A121U	1.7
G53A A142G	1.3
U52A C84U	0.14
U52A A77G	2.06
U52A U132C	1.48
U52A U132A	1.18
U52C U96C	0.02
U52A G135C	1.82
G55A A65G	0.03
G53U A64G	0.16
C51U U119C	1.73
